Measured values published in the DeepSol protein solubility set.

experiment: soluble on expression in E. coli; label from the status in PepcDB or PDB records

| Sequence | soluble on expression in E. coli |
| --- | --- |
| MSLKVGVALSGGVDSAVALYLLLKEGHEVKAFHMKTKEDEFFIKKEIKKKVCCSPSDTADAMRIAHFLGVEIEIVDVKEIFREKVIEPFKRDLLKGLTPNPCAHCNRFVKFGYLMDYVLNQGFDAFASGHYARIEFSEKYGRKVIKKGVDLKKDQSYFLARIEPWRIERLIFPNGIYTKEEIRKIAEEAGIHVAKKQESQDVCFIPDGSIENFLKDEGITLKDGDIITPEGEVVGRHFGYPLYTIGQRKGFKIEKFGRRYYVRGKIPEKNVVVVSDLEDVFFSGLIAEDPVWHVEVPEEFRCVCRVRKKSEEAPAVVKVKDNEVEVSFEKKVFAVTPGQIAAFYDGDTLLGGAIIKEGIREGHHHHHH | soluble |
| MAMSFEWPWQYRFPPFFTLQPNVDTRQKQLAAWCSLVLSFCRLHKQSSMTVMEAQESPLFNNVKLQRKLPVESIQIVLEELRKKGNLEWLDKSKSSFLIMWRRPEEWGKLIYQWVSRSGQNNSVFTLYELTNGEDTEDEEFHGLDEATLLRALQALQQEHKAEIITVSDGRGVKFF | soluble |
| MSELSQLSPQPLWDIFAKICSIPHPSYHEEQLAEYIVGWAKEKGFHVERDQVGNILIRQPATAGMENRKPVVLQAHLDMVPQKNNDTVHDFTKDPIQPYIDGEWVKARGTTLGADNGIGMASALAVLADENVVHGPLEVLLTMTEEAGMDGAFGLQSNWLQADILINTDSEEEGEIYMGCAGGIDFTSNLHLDREAVPAGFETFKLTLKGLKGGHSGGEIHVGLGNANKLLVRFLAGHAEELDLRLIDFNGGTLRNAIPREAFATIAVAADKVDALKSLVNTYQEILKNELAEKEKNLALLLDSVANDKAALIAKSRDTFIRLLNATPNGVIRNSDVAKGVVETSLNVGVVTMTDNNVEIHCLIRSLIDSGKDYVVSMLDSLGKLAGAKTEAKGAYPGWQPDANSPVMHLVRETYQRLFNKTPNIQIIHAGLECGLFKKPYPEMDMVSIGPTITGPHSPDEQVHIESVGHYWTLLTELLKEIPAK | not soluble |
| MGSDKIHHHHHHNENPDKPTDDVNYNMNEPRLASTLRGGLIIEGNVEQRLKPLQIDFYSQMTVDGGGWGTKNYIQDDEWNNLVWEEYLKQIASINIVIRSLTEKDKDAYANTIAFARIWRVYVHTLAADKFGPMPFPAYEIVEANPPYKSLKDIYDEYFRELDAAINGFNDSAQPIFSDAGIDLIYKNDVSKWKRFANSLRLRLAVRLTEVDQEKCIAEANAAISSPAGLISDKADNAYMPPKADGSWGQDYNYTMFQITWSGPICMSKSVEKLVTNIGGVAWPQGVVNQTSGVAVSSVHPEKVDPRAPKIFQPGIENGDWKGLVYGPKAEEANTGIYQSKQCAELGFIIKDGYPYKSRPYDLFLSEEVHFLKAELYARGFIAGDAKSEYEAGVRASFATWGVTSEVDDYLTSTEKNEAGTSARYDDQQGAGNTALEKIITQKYIAGIPDLAQEGWNDKRRLNLPRLDVAVYRDQAVYNNNDKDILKSANFIKRMRYPTKESLINATEYEKGKSMLGGKGDIVSTPLWWDKNSNYCTSSK | not soluble |
| MSLTVTIKDVAKKANVAPSTVSRVIADNPSISEKTKRRVRKVMSELGYHPNLNARSLANQTTKTIGLVMPSSANKAFQNPFFPEVIRGISSFAHVEGYALYMSTGETEEEIFNGVIKMVQGRQIGGIILLYSRENDRIIQYLNEKNFPFVLIGKPYDKKDKITYVDNDNYTAAREVAEYFISLGHKRIAFIGGGSDLLVTKDRLAGMSDALKLADIQLPSEYIFHLDFSRESGQQAVEELMGLKEPPTAIMATDDLIGLGVLSALTAKGISVPKDVSLVSFNNVLLSEIASPPLTTVDVNIYQLGYEAAKALVDKVEHSESSSKCIVIPHKLLKRQTCEGHHHHHH | soluble |
| MESYSQRQDHELQALEAIYGSDFQDLRPDARGRVREPPEINLVLYPQGLAGEEVYVQVELRVKCPPTYPDVVPEIDLKNAKGLSNESVNLLKSHLEELAKKQCGEVMIFELAHHVQSFLSEHNK | soluble |
| MAHHHHHHMKSHNLDLIKNQNFDKNHNFINYSELYKKYKEKYNVKSFNKLPVSTYTYPRYSKITNFDELKTELIYEKEINEIEEEYDDDDEQNNINNYDGNIEILFPMINEKENEDIKKKKTDNIYKSEKKSLRQRIYDGEVMFYEDYIEQLAVKDYEHFFKKPYEIKRKDEGGKNYFYGKKLEMNKEEDIYRKFYGFDDAYFLNKLQLKNKSPQKEKNKEEKQKKRNEEKILERQCGKKLSYEDKKFILNIIEENQLQDNSIYKYYMQNKCIFDKNLPEFKKKELLCGYIPDIILPANVRKVKHPKNCGVPLSSLHIYAQFIHELFKCPYIYNAIDVELGKYWKTNENELLNIMKSEKIKKGYKKDIYTATKEQLEKSSAKLKNLLKNDEVSDDTRKKFTINFKMPKKEKTNLVVSKGRYII | soluble |
| MGHHHHHHSHSEVAIKIDFDFAPGSFDDQYQGCSKQVMEKLTQGDYFTKDIEAQKNYFRMWQKAHLAWLNQGKVLPQNMTTTHAVAILFYTLNSNVHSDFTRAMASVARTPQQYERSFHFKYLHYYLTSAIQLLRKDSIMENGTLCYEVHYRTKDVHFNAYTGATIRFGQFLSTSLLKEEAQEFGNQTLFTIFTCLGAPVQYFSLKKEVLIPPYELFKVINMSYHPRGNWLQLRSTGNLSTYNCQLLKASSKKCIPDPIAIASLSFLTSVIIFSKSRV | not soluble |
| SLMKQIKHFNQNYQELRQLGKVAIGRRAGKLKAGTIILFAVDSQGKILAARKMQGVTVLAKFHPLPQYVNEDIHYMDHYHPLVQKENKLTQQAMENAREIYLRVELGNYQETQPLTPLNGAKIQWQLWKNKVQTKLKGSVE | soluble |
| MNFEDVFREFGELWYDIEFVLTTVIKTKNVTPILTLSGEFCVPGIHALYNIFHIMISVLRIFQKVKHDTWHLVTDYVNILETRLKPFERTPCFITNTALETIIQELCEYWRMLENVPCKDIRSIEGARFTENDWKNELIRIGLSDIFPELVEFFDAGYQVLLNIAQNGDTLKTSDLICHLESTQAFCFSSRFKFLEVASDIQQGIYPKFRNSVNVFIGIASKSESLLPHLKARSRYEGILSAMQVDKQLVPPPIQICHKLIIDAETVSNPTPVPQQLEKKTENCSECSDVRMEMYTVKDVLQNVQKQLKNMQQNSEQFETKLVASDNKTKNFEKQLEDERRKNNKHLESSRKTLISKNEQLEALKRRATALSNCQAENQTLKFKIAEHHDLEKQLNISNKDVTQARDQLSGQISELEIQLKSELKNVEHLNKEHKKAIDLANEISKLKTEIERETSISKQLEKEISQLRTETDEMNIVITQSLEMENLQLRDVTKKFETENASLLKTNQQLSIQNEEQKRLIQVLLEKQQTAPSSSDFPVPSTQMTDNEENSRQQLWKYQKIKDSFRDGMKLRKAEAMVKKLTSLDRDLGVHQMAHRELENFKKLTSYYLQAIEMNIPKIKNNGSSDLEQLPEAPKFSNEFMRFYRNATGKQPLTSSSSSSANPRSTHIEGSSISTMPSTSSRGNVQHHSGSAVRGQSITPTGLSQVPMSPRKLFSQPDIVTASVPSTELDDTECAICLDEMTNFKETIKCECRRRFHLKCATKWLNEKRECPTCRKLLLNPADYPPLN | not soluble |
| MYDYGTFAFASKADVLDQAKAFWNPDKTQFWTDSGVDLVIDRREGYFLWDMSGRRLIDLHLNGGTYNIGHRNPEVMQAISEGMAHFDVGNHHFPSVARTALAKRLVETAPASIKKVAFGSGGGEAIDIALKSARHGTQRRKIVSVIKAYHGHTGLAVATGDDRFAKLFLADRPDEFIQVPFGDIGAMEAALAGGDVAAVIMETIPATYGFPLPPPGYLEAVKALTERHGTLYIADEVQTGLMRTGELWGITKHGIDPDIIVTGKGLSGGMYPISAVLLGERAARWLDQDGFGHISTFGGAELGCVAAIKTLEICTRPEVRSMVHYIADIFDTGLRRIQADYPDWFVGIRQNGVVIGLEFDHPEGAKFVMRELYENGVWAIFSTLDPRVLQFKPGLLLSRELCEDVLDRLEVAVGRARATVTGRRNG | not soluble |
| MPDRPQHPTASRQSSMVSWNHGAAGWLHCVQCGSATNPTACLDWLPPIHARSGPMYAEHDVVVLTRDVPDKSLIAGDVGAVVGRYAAGGYEVDFTAANGCTVAVVTLAGDDIRPRRRREIPHVREVA | not soluble |
| MHHHHHHSSGVDLGTENLYFQSMNLPEHWTDMNHQLFCMVQLEPGQSEYNTIKDKFTRTCSSYAIEKIERIQNAFLWQSYQVKKRQMDIKNDHKNNERLLFHGTDADSVPYVNQHGFNRSCAGKNAVSYGKGTYFAVDASYSAKDTYSKPDSNGRKHMYVVRVLTGVFTKGRAGLVTPPPKNPHNPTDLFDSVTNNTRSPKLFVVFFDNQAYPEYLITFTA | soluble |
| MAHHHHHHMRAEIPGVVPAVVSQVSEHQLPHLYPRHTAVTDSTALPREKSTLQRTDTTDSQLFSLADLQLARGNTRRPSRSRPTSPIRKDRIPRPPSVEFDVHLEVPRPHIRVSALPKHVMWPLPIPLPNLGNTCYMNSVVQCLRQSPSLALALEQCQLNAESHPAAAAMLNFFRMSEGDPKEFLVTFKSEAAKYNDEFKDFTQADAHEFLRTFLSVVHNEINTAPRAKLHIDDMGYVGKEDEETAFGMWRDQFACFDKSPIYDLFGGTTLGTCFCNSCENSSRTFEAFLDLSLPIGHEMPFGANLEAILQANFVEGKAEKMDGSNRIYCSRCKRLRSGSRCVVVRQWPKLLVLHLKRFDEYGKKNLVNVIYPETFMTGGEKSLRYSLYGVLMHSGTEMSGHYTSYVRVAFGEWYLCNDGAITPSRSVDVMQELEKAYILFYAEVPQVEPTFF | not soluble |
| SQKLADFKLPQFFNYPPYFTLQPVRDTREKQIQLWKELILDYCKSQKIFLIGVEEDFPLFSNSAIDRSLSHEARETFLSAIVGEGRAEWLDKGHRKCLILWHRIQDWADIVLQFVRDNGLEDSVMTVEEIRSGTESLGTELQGIDRTILMRALKLLENKGKLALFKGTSADDEGVKFSV | soluble |
| HMSSGNASWFQAIKAKKLNTPPPKFEGSGVPDNENMKPSQQHGYWRRQARFKPGKGGRCPVPDAWYFYYTGTGPAADMNWGDTQDGIVWMAAKGADTKSRSNQGTRDPDKFDQYPLRFSDGGPDGNFRWDFIPL | soluble |
| MGKYDALVELLLEAVKEGANIHQEDCSIPVGISNRHIHLSQADVNTLFGEGYSLTRIKDLSQPGQYACKETLTICGPKGAIENVRILGPERRESQVEILRTDCFKLGLKAPVKLSGELQGTPGMTLVGPKGSVLLSQGVIVAQRHIHMSLEDAQRFGVRDGELVTIQINGLRGGTYANVAIRANNTSQLECHIDTDEANGMDLTPTSRITIIK | not soluble |
| MALVLTFLGKGGVGRTTVAIAAAKKLAQAGQRVLVLGQDPSLAWQWGITLSETAQGVEANVDGLLLSSTHLLERGWEKLKEVEAQYLRSPALKNIYGEELGVLPGMDEVLVLNALREYELSGRYDVLIYDGPGNLSTLRMLGIPEIASWYWRRFQKVLADSEVVQTLSPFVQPVASAVLSVNWSPDQMLNHPDGPQNLLQQGKAAIADPNRFAAYLVTSTDSLAQKAAQSYWGGAQQVGVTVKGVIQTPLGNGSLDANLFDPLLIAALPSYNQGNWQPLMDALPNPQAMGSAPRPLEIDVNARQVKVFLPGFDKRQVKLTQSGPELTIEAGDQRRNIDLPGNLRGKGVTGAKFQGGYLIVSFLEHHHHHH | not soluble |
| MDEGVKEKFIGAVLGAAVGDALGKSVEDITEEEVFEFYGDRIRDFVTPHPSSPAYGQLPEETSDETTIFRLLLESLVEKKALDVRDFLNRLMEWYDREEMHRYPDPMLLTAIDLLSRGINPSTHGLTSFSVEGILRSVALGLYHYYNPELAAEGSKVVSLLTHRSDVISDASAILGALIAHLVRGDFYLEDFREKLRLIETLKDYAKEEKHKKILDRVAELLMESADLETAINTLGNGTFAFEAFPLALYIFLSNVENPEEALFQAVNSYGEFGGDTDAIGFLVGAMLGAYYGEEAIPYHLRENVENSQKLRELAERLYEVVEKQVGFSQ | not soluble |
